We go through six substances from patent publication US20260242731A1.

The target of assay [1] is CD19 antibody FMC63. Briefly: biolayer interferometry, FMC63 immobilized; stronger non-specific binding noted.
The target in assay [2] is CD19 antibody FMC63. Briefly: biolayer interferometry, FMC63 immobilized. (In BLI a coated tip is dipped into the sample, and binding shifts an interference pattern.)
Assay [3] has as its target FMC63-derived anti-CD19 28z CAR on primary T cells. Nature of the assay: flow cytometry, FITC-labeled protein titrated on anti-CD19 28z CAR primary T cells, four-parameter fit. (In general: In flow cytometry, cells or beads pass a laser one at a time.)
Assay [4] deals with FMC63-scFv-41BBz CAR on Jurkat-Lucia NFAT cells. Briefly: cell-based or functional assay.
In assay [5] the target is CD19.1-Fc (Human). Briefly: on-bead anti-CD19-FITC (FMC63) binding assay.
For assay [6], the target named is CD19.1-Fc (Human). Nature of the assay: on-bead fluorescence binding capacity assay; CD19.1-Fc coated beads.
Assay [7] has as its target custom-produced WT etCD19-Fc (Human; human) (UniProt P15391). Briefly: on-bead fluorescence binding capacity assay; wtCD19 Fc coated beads.
Assay [8] concerns the target CD19.1-Fc (Human). Briefly: on-bead fluorescence binding capacity assay; beads CD19.1-Fc (0.5 x moles).
Assay [9] addresses CD19.1-Fc (Human). Briefly: on-bead fluorescence binding capacity assay; beads CD19.1-Fc (1.0 x moles).
Assay [10] concerns the target CD19.1-Fc (Human). Nature of the assay: on-bead fluorescence binding capacity assay; beads CD19.1-Fc (2.0 x moles).
Assay [11] addresses CD19.1-Fc (Human). Briefly: on-bead fluorescence binding capacity assay; beads CD19.1-Fc (5.0 x moles).
The target of assay [12] is CD19.1-His (Human) (UniProt P15391). Nature of the assay: on-bead fluorescence binding capacity assay; beads CD19.1-His (0.5 x moles).
Assay [13] shares this target. Briefly: on-bead fluorescence binding capacity assay; beads CD19.1-His (1.0 x moles).
For assay [14] the target is unchanged. Briefly: on-bead fluorescence binding capacity assay; beads CD19.1-His (2.0 x moles).
Assay [15] has the same target. Briefly: on-bead fluorescence binding capacity assay; beads CD19.1-His (5.0 x moles).
For assay [16], the target named is CD19.1-Fc (Human). Nature of the assay: direct ELISA, CD19 variant coated on plate (2D), FMC63-HRP titrated, OD450nm.
Assay [17] addresses CD19.1-Fc (Human). Briefly: on-bead ELISA, HRP-conjugated FMC63 titrated on CD19.1 Fc coated beads, absorbance at 450 nm, four-parameter logistic fit. In general terms: In an ELISA, binding on a coated surface is turned into a signal by an enzyme label.
In assay [18] the target is CD19.1-His (Human) (UniProt P15391). Briefly: on-bead ELISA, HRP-conjugated FMC63 titrated on CD19.1 His coated beads, absorbance at 450 nm, four-parameter logistic fit.
Assay [19] addresses WT etCD19-His (Acrobiosystems) (Human) (UniProt P15391). Nature of the assay: on-bead ELISA, HRP-conjugated FMC63 titrated on wtCD19 His coated beads, absorbance at 450 nm, four-parameter logistic fit.

By Kd is commonly meant the equilibrium constant for the complex coming apart. One may read the EC50 as the concentration that produces a half-maximal response. What is called EC50 (read off the curve) is the concentration giving half of the maximal effect. Read a high EC50 (read off the curve) as a need for much substance.

In turn, “purchased WT etCD19-His (from UniProt P15391 20-291)” returned a Kd in the assay with CD19 antibody FMC63 [1] of 3.88 nM.

Take CD19.1-His (from UniProt P15391 20-291): in the assay with CD19 antibody FMC63 [2], the Kd came to 3.18 nM. Further, the EC50 in assay [3] came to 15.8 nM.

As to “WT etCD19-His (Acrobiosystems) (from UniProt P15391 20-291)”, the equilibrium dissociation constant (Kd) with CD19 antibody FMC63 [1] came out at 7.18 nM.

As for “CD19.1 (immobilized on plates or coated on beads; tagged version not stated) (from UniProt P15391 20-291)”, the maximum stimulation against TransAct at 1:100 dilution (fold stronger than TransAct) in assay [4] amounted to 3.4.

CD19 antibody FMC63 came in with a fold binding capacity (functional antigen density) against wtCD19 coated beads (times higher than wtCD19 coated beads) in the assay with CD19.1-Fc (Human) [5] of 3.5. In addition, the Moles of antibody per mg of beads (mol per mg of beads) with CD19.1-Fc (Human) [6] was 4.6e-13; in assay [7] it was 1.3e-13; with CD19.1-Fc (Human) [8] it was 2.8e-13; with CD19.1-Fc (Human) [9], 4.1e-13; in the assay with CD19.1-Fc (Human) [10], 6e-13; with CD19.1-Fc (Human) [11], 1e-12. Further, the Moles of antibody per mg of beads (mol per mg of beads) came to 4.9e-13 with CD19.1-His (Human) [12], 5.1e-13 with CD19.1-His (Human) [13], 1.14e-12 with CD19.1-His (Human) [14] and 2e-12 with CD19.1-His (Human) [15]. In addition, the figures for the Percentage of CD19.1 or wt CD19 Fc molecules bound by anti-CD19-FITC (FMC63) (in the assay with CD19.1-Fc (Human) [6]; in [7]) were 1.36% and 0.37%, respectively. For the same substance, the % of CD19.1 molecules bound by anti-CD19-FITC with CD19.1-Fc (Human) [8] worked out at 0.7%; with CD19.1-Fc (Human) [9], 0.87%; with CD19.1-Fc (Human) [10] it was 1.21%; with CD19.1-Fc (Human) [11], 1.86%; with CD19.1-His (Human) [12], 0.8%; in the assay with CD19.1-His (Human) [13] it was 0.76%. Also, the % of CD19.1 molecules bound by anti-CD19-FITC in the assay with CD19.1-His (Human) [14] stood at 1.66%; in the assay with CD19.1-His (Human) [15] it was 2.17%. The substance further gave an EC50 (read off the curve) in the assay with CD19.1-Fc (Human) [16] of 4 ng/mL. The concentration giving a half-maximal response (EC50) with CD19.1-Fc (Human) [17] stood at 0.59 nM; in the assay with CD19.1-His (Human) [18], 0.36 nM; in [19] it was 0.68 nM.

CD19.1-Fc (Fc fusion): in the assay with CD19 antibody FMC63 [2], the Kd came out at 0.103 nM. Further, the concentration for a half-maximal effect (EC50) in [3] turned out to be 1.9 nM.
